Data published in patent US20190248889A1 (Genentech, published 2019).

B1: antibody LGR5.26-1 (antibody, V domains shown)
VH: QSLEESGGDLVKPGGTLTLTCTASGIDFSYYSYMCWVRQAPGKGLEWIACIYAGTSGSTYYASWAKGRFTISKTSSTTVTLQMISLTAADTATYFCARSYYTFGVNGYAWDLWGPGTLVTVSS
VL: AFELTQTPSSVEAAVGGTVTIKCQASQSISVGLAWYQQKPGQPPKLLIYKASTLASGVPSRFKGSRSGTEFTLTISDLECADAATYYCQSYYDSSTTANVFGGGTEVVVKG
notes: also called αLgR5.26-1; antibody 26-1
B2: antibody LGR5.1-12 (antibody, V domains shown)
VH: QSLEESGGGLVQPEGSLTLTCTASGFSFSRTYWICWDRQAPGKGLEWIACIYAGGSDNTYYASWAKGRFTISKTSSTTVTLQVTSLTAADTATYFCARYYAGSSEYFNLWGPGTLVTVSS
VL: AYDMTQTPASVEVAVGGTVTIKCQASQSIGSNLAWYQQKPGQPPKLLIYGASNLASGVSSRFKGSGSGTEFTLTISDLECADAATYYCQTTYGSSSDGFFWTFGGGTEVVVKG
notes: also called αLgR5.1-12; antibody 1-12

Target: T1, human LgR5 (human, UniProt O75473 22-907)
T1 construct: This one molecule is used for transfected 293 cells and for endogenous LgR5 in human cells and tissues; also called leucine-rich repeat-containing G protein-coupled receptor 5
T1 sequence: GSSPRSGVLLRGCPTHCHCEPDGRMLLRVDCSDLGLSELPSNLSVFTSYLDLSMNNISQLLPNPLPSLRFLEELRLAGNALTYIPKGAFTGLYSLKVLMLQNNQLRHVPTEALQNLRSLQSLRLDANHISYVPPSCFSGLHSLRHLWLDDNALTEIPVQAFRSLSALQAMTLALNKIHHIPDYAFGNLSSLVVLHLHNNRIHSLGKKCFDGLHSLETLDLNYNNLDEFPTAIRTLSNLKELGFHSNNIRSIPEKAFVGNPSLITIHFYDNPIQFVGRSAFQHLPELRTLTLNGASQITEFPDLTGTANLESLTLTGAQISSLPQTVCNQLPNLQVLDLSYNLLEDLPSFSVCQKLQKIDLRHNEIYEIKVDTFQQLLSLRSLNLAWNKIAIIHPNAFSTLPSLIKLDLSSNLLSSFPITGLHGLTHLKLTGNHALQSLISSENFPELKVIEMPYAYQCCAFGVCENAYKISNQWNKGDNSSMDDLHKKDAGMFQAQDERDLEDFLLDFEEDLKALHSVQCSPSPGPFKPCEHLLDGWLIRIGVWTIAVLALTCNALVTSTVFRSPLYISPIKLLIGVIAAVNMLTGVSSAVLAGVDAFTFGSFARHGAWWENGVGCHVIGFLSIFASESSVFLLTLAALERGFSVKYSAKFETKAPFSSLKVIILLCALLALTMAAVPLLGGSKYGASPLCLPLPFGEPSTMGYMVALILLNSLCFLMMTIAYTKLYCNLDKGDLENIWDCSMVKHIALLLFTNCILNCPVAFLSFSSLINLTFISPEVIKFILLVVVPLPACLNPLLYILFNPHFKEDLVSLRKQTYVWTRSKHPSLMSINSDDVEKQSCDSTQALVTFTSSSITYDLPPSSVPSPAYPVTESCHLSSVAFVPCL
Assay: IHC on SW403 colon cancer cell line
Description: Staining with antibody LGR5.26-1 was compared to staining with antibody LGR5.1-12 in CXF233 (human colon tumor model; Oncotest) xenograft tumors and in various colon cancer cell lines. Immunohistochemistry (IHC) for Lgr5 was performed on a Dako Universal Autostainer (Dako, Carpinteria, Calif.). Briefly, formalin-fixed, paraffin-embedded tumor tissue were deparaffinized and antigen unmasking was performed in a PT Module (Thermo Scientific, Kalamazoo, Mich.) with Target Retrieval pH 6 (Dako) at 99° C. for 20 minutes. Endogenous peroxidase was inhibited with treatment of 3% H202 in PBS for 4 minutes and endogenous biotin was blocked using the Avidin/Biotin blocking kit (Vector Labs, Burlingame, Calif.). Endogenous IgGs were blocked using 10% donkey serum in 3% BSA/PBS and primary antibody to Lgr5 (LGR5.1-12 or 26-1) was incubated at 4 μg/ml for 60 minutes at room temperature. […] Antibody binding was detected with Metal enhanced DAB (Pierce Rockford, Ill.) for 5 minutes at room temperature and sections were counterstained with Mayer's Hematoxylin (Rowley Biochemical, Danvers, Mass.).
Each cell line was also characterized by lgr5 gene expression using RNAseq data into the following levels of expression: none, very low, low, moderate, and high. In addition, LgR5 levels were determined in the cell lines by IHC, substantially as described above.

Binder | binding result
B1 | binds
B2 | binds
